# In the Human Domainome abundance scans (Beltran et al. 2025):
# ± gives the uncertainty stated by the source.
# B1: Glucocorticoid receptor, residues 419 to 494; numbered along this chain, P04150 (parent)
# chain: KLCLVCSDEASGCHYGVLTCGSCKVFFKRAVEGQHNYLCAGRNDCIIDKIRRKNCPACRYRKCLQAGMNLEARKTK
# Variants of: B1
# Assay: abundance fitness (aPCA) (normalised: wild type 0, dead -1); higher = more abundant; growth selection in yeast, the domain comes from the species named
# Details: Homo sapiens
row,Variant,abundance fitness
1,TLCLVCSDEASGCHYGVLTCGSCKVFFKRAVEGQHNYLCAGRNDCIIDKIRRKNCPACRYRKCLQAGMNLEARKTK [K1T],-0.324 ± 0.062
2,KLSLVCSDEASGCHYGVLTCGSCKVFFKRAVEGQHNYLCAGRNDCIIDKIRRKNCPACRYRKCLQAGMNLEARKTK [C3S],-0.728 ± 0.089
3,KLCLVCSDEASGCHYGVLTCGSCKVFFKRAVEGQHNYLCAGRNDCIIDKIRRKNCQACRYRKCLQAGMNLEARKTK [P56Q],-0.001 ± 0.045
4,KLCLVCSDEASGCHYGVLTCGSCKVFFKAAVEGQHNYLCAGRNDCIIDKIRRKNCPACRYRKCLQAGMNLEARKTK [R29A],-0.024 ± 0.042
5,KLCLVCSDEASGCHYGVLTCGSCKVFFKRAVEGQHNYLCAGRNDCIIDKIRRKNCPACRYRKCLQAGMELEARKTK [N69E],-0.02 ± 0.043
6,KLCLVCSDEASGCHYGVLTCGSCKVFFKRAVEGQHNYLCAGRNDCIIDKIRRKNCPACRYRKCLQAGMNLEARKKK [T75K],0.007 ± 0.076
7,KLCLVCSDEASGCHYGVLTCGSCKVFFKRAVEGQHNYLCAGRNDCIIDKIRRKNCPACRYRKCLQAGMNNEARKTK [L70N],-0.011 ± 0.076
8,WLCLVCSDEASGCHYGVLTCGSCKVFFKRAVEGQHNYLCAGRNDCIIDKIRRKNCPACRYRKCLQAGMNLEARKTK [K1W],-0.301 ± 0.068
9,KLCLVCSDEASGCHYGVLTCGSCKVFFKRAVEGQHNYLCAGRNDCIIDKIRRKNCPACRYRKCLQAGMNEEARKTK [L70E],-0.021 ± 0.049
10,KLCLVCSDEASGCHYGGLTCGSCKVFFKRAVEGQHNYLCAGRNDCIIDKIRRKNCPACRYRKCLQAGMNLEARKTK [V17G],-0.176 ± 0.036
11,KLCLVCSDEASGCHYGVLTCGSCKVFFKRAVEGNHNYLCAGRNDCIIDKIRRKNCPACRYRKCLQAGMNLEARKTK [Q34N],0.08 ± 0.087
12,KLCLVCSDEASGCHYGVLTCGSCKVFFKRAVEGQHNYLCAGRNDCIIDKITRKNCPACRYRKCLQAGMNLEARKTK [R51T],-0.016 ± 0.043
13,KLCLVCSDEASGCHYGVQTCGSCKVFFKRAVEGQHNYLCAGRNDCIIDKIRRKNCPACRYRKCLQAGMNLEARKTK [L18Q],-0.087 ± 0.05
14,KLCLVCSDEASGCHYGVLTCGSCKVFFKRAVEGQHNYLCAGRNDCIIDKIRRKNCPACRYRKRLQAGMNLEARKTK [C63R],-0.772 ± 0.082
15,KLCLVCSDEASGCHYGVLTCGSCKVFFKRAVEGQHNYLCAGRNDCIIDKIRRKNCPACSYRKCLQAGMNLEARKTK [R59S],-0.81 ± 0.1
16,KLCLVCSDEASGCHYGVLTCGSCCVFFKRAVEGQHNYLCAGRNDCIIDKIRRKNCPACRYRKCLQAGMNLEARKTK [K24C],0.011 ± 0.065
17,KLCLVCSDEASGCHYGVLTCGSCKVSFKRAVEGQHNYLCAGRNDCIIDKIRRKNCPACRYRKCLQAGMNLEARKTK [F26S],-0.703 ± 0.076
18,KLCLVCSDEASGCHYGVLTCGSCKVFFKRAVEGQHNYLCAGRNDCIIDKIRRKECPACRYRKCLQAGMNLEARKTK [N54E],-0.025 ± 0.044

row,Variant,abundance fitness
1,KLCLVCSDEASGCHYGVLTCGSCKVFFKRAVEGQHNYLCAGRNDCIIDKIRRKNRPACRYRKCLQAGMNLEARKTK [C55R],-0.929 ± 0.077
2,KLCLVCSDEASGCHYGVLTCGSCKVFFKRAVEGQHNYLCAGRNDCIIDKIRRKWCPACRYRKCLQAGMNLEARKTK [N54W],-0.064 ± 0.04
3,KLCLVCSDEASGCHYGVLTCGSCKVFFKRAVEGQHNYLCAGRNDCIIDKIRRKNCPACRYRRCLQAGMNLEARKTK [K62R],-0.05 ± 0.031
4,KLCLVCSDEASGCHYGVLTCGSCKVFFKRAVEGQHNYLCAGRNDCIPDKIRRKNCPACRYRKCLQAGMNLEARKTK [I47P],-0.442 ± 0.063
5,KLCLVCSIEASGCHYGVLTCGSCKVFFKRAVEGQHNYLCAGRNDCIIDKIRRKNCPACRYRKCLQAGMNLEARKTK [D8I],-0.68 ± 0.2
6,KLCLVCSDEASGCHYGVLTCGSCKVFFKRAVEGQHNYLCAGRNDCIIDKIRRKPCPACRYRKCLQAGMNLEARKTK [N54P],-0.25 ± 0.049
7,KLCLVCSDEASKCHYGVLTCGSCKVFFKRAVEGQHNYLCAGRNDCIIDKIRRKNCPACRYRKCLQAGMNLEARKTK [G12K],-0.08 ± 0.047
8,KLCLVCSDEASGCHYGVLTCGSCKVFFKRAVEGQHNYLCAGRNDCIIDKIRRKNCPACRYRKCLQARMNLEARKTK [G67R],-0.491 ± 0.055
9,KLCLVCSDEASGCHYGVLTCGSCKVFFKRAVEGQHNYLCAGRNDCIIDKIRRKNCHACRYRKCLQAGMNLEARKTK [P56H],-0.111 ± 0.062
10,KLCLVCSDEASGCHYGVLTCGSCPVFFKRAVEGQHNYLCAGRNDCIIDKIRRKNCPACRYRKCLQAGMNLEARKTK [K24P],-0.096 ± 0.072
11,KLCLVCSDEASGCHCGVLTCGSCKVFFKRAVEGQHNYLCAGRNDCIIDKIRRKNCPACRYRKCLQAGMNLEARKTK [Y15C],-0.153 ± 0.06
12,KLCLVCSDEASGCHYGVLTCGSCKVFFKRAVEGQHNYLCAGRNDCIIDKINRKNCPACRYRKCLQAGMNLEARKTK [R51N],-0.031 ± 0.13
13,KLCLVCSDEASGCHYGVLTCGSCKVFFKRAVEGQHNYLCAGRNDCIIDKIRRKNCPACNYRKCLQAGMNLEARKTK [R59N],-0.817 ± 0.23
14,KLCLVCSDEASGCHHGVLTCGSCKVFFKRAVEGQHNYLCAGRNDCIIDKIRRKNCPACRYRKCLQAGMNLEARKTK [Y15H],-0.088 ± 0.08
15,KLCLVCSDEASGCHYGVLTCGSCKVFFKRGVEGQHNYLCAGRNDCIIDKIRRKNCPACRYRKCLQAGMNLEARKTK [A30G],-0.274 ± 0.038
16,KLCLVCSDEASGCHYGVLTCGSCKVFFKRAVEGQHNYLCAGRNDCIIDKIRRKNCPACRYAKCLQAGMNLEARKTK [R61A],0.054 ± 0.033
17,KLCLVCFDEASGCHYGVLTCGSCKVFFKRAVEGQHNYLCAGRNDCIIDKIRRKNCPACRYRKCLQAGMNLEARKTK [S7F],-0.045 ± 0.076
18,KLCLVCSDEASGCHYGVLTCGSCKVFFKRAVEGQHNYLCAGRNDCIIDKIRRKNCPACRYRKCLQAGSNLEARKTK [M68S],-0.771 ± 0.092
